B1: Monoclonal antibody 30G6.G6.G4.E9 (antibody, mouse IgG1, V domains shown)
VH: GPGLVAPSQSLSITCTVSGFSLTSYGVHWVRQPPGKGLEWLGVIWAGGITNYNSALMSRLSISKDNSKSQVFLKMNSLQTDDTAMYYCARIYYDYDAWFAYWGQGTLVTVSA
VL: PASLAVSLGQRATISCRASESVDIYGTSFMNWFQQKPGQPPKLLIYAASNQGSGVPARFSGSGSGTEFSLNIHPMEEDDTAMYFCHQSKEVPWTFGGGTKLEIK
notes: Murine IgG1 kappa from hybridoma; also called ATCC PTA-123096
B2: Monoclonal antibody 2F11.F8 (antibody, mouse IgG1, V domains shown)
VH: ESGPGLVKPSQSLSLTCSVTGYSITSGYYWIWIRQFPGNKLEWMGYINYDGSNNYNPSLKNRISITRDTSKNQFFLKLNSVTTEDTATYYCARGNYYAMDYWGQGTSVTVSS
VL: not shown
notes: Murine IgG1 kappa from hybridoma; also called ATCC PTA-123098 (so in the source)
B3: Monoclonal antibody 26A9.C4 (antibody, mouse IgG1, V domains shown)
VH: SGARELVKPGASVKLSCKTSGFTFSSSFISWLKQKPGQSLEWIAWIYGGNGGTSYNQNFTGKAQLTVDTSSSTAYMQFSSLTTEDSAVYYCASETYGNYWYFDVWGAGTTVTVSS
VL: QSPASLSASVGDTVTITCRASGNIHNYLAWYQQKQGKSPQLLVYNAKTLADGVPSRFSGSGSGTQYSLKINSLQPEDFGNYYCQHFWSTPYTFGGGTKLEIK
notes: Murine IgG1 kappa from hybridoma; also called ATCC PTA-123092
B4: Monoclonal antibody 19D4.B7 (antibody, mouse IgG2a, V domains shown)
VH: GARELVKPGASVKLSCTASGFNIKHPYMHWVKQRPDQGLEWIGRIDPANGNTKYDPKFQGKATITADTSSNTAYLQLSSLTSEDTAVYYCGREEVADYTMDYWGQGTSVTVSS
VL: PASLAVSLGQRATISCRASESVDTYGNNFIHWYQQKPGQPPKLLIYLASNLESGVPARFSGSGSRTDFTLTIDPVEADDAATYYCQQNNGDPWTFGGGTKLEIKR
notes: SULFO-TAG conjugated when used as detection antibody in the ECL assay; also called ATCC PTA-11884

Columns and labels:
[1] = molecular target: T1, human folate receptor gamma (FRγ), recombinant, C-terminal 6xHis (human, UniProt P41439 23-245, limits assumed); experiment: direct ELISA, plates coated with 1 µg/mL FR isoform, dilution series of culture supernatant
T1 construct: Transiently expressed in 293F cells and purified; coated on ELISA plates
T1 sequence (P41439 other isoform, or with tags, fused parts or gaps limits assumed): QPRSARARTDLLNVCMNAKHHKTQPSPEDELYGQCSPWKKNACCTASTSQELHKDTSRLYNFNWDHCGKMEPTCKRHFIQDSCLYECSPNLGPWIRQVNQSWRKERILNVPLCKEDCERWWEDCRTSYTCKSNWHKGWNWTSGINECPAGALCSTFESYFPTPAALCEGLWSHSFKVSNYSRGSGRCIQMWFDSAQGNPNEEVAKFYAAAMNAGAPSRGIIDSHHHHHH

[2] = molecular target: T2, human folate receptor beta (FRβ), recombinant, C-terminal 6xHis (human, UniProt P14207 17-230, limits assumed); experiment: as above
T2 construct: Transiently expressed in 293F cells and purified; coated on ELISA plates
T2 sequence (P14207 other isoform, or with tags, fused parts or gaps limits assumed): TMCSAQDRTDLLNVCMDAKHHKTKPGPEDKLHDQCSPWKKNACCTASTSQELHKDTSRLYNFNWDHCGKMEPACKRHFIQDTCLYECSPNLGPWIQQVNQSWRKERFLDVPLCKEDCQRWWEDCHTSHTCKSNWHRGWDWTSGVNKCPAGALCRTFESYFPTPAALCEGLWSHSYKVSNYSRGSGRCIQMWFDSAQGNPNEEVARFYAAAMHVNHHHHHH

[3] = molecular target: T3, recombinant purified FRα (ECL assay calibrator) (human, UniProt P15328 25-234); experiment: ECL sandwich, FRα calibrator; capture 28H12.G9; binder = detection Ab
T3 construct: Calibrator of the ECL sandwich assays; also called FRα calibrator; FRα standard
T3 sequence (P15328 25-234 limits assumed): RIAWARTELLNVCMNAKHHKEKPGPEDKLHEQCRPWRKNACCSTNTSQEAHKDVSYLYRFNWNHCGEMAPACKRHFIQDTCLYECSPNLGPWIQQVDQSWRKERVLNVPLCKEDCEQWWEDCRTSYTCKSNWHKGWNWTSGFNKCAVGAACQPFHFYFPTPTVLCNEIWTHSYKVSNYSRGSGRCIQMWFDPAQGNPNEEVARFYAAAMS

[4] = molecular target: T3, recombinant purified FRα (ECL assay …); experiment: ECL sandwich on FRα, signal to background; capture 1C6.E12.G8; binder = detection Ab
[5] = molecular target: T3, recombinant purified FRα (ECL assay …); experiment: ECL sandwich on FRα, signal to background; capture 1D2.G8.G10; binder = detection Ab
[6] = molecular target: T3, recombinant purified FRα (ECL assay …); experiment: ECL sandwich on FRα, signal to background; capture 2F11.F8; binder = detection Ab
[7] = molecular target: T3, recombinant purified FRα (ECL assay …); experiment: ECL sandwich, FRα calibrator; capture 24H8.F3; binder = detection Ab
[8] = molecular target: T3, recombinant purified FRα (ECL assay …); experiment: ECL sandwich, FRα calibrator; capture 19D4.B7; binder = detection Ab
[9] = molecular target: T3, recombinant purified FRα (ECL assay …); experiment: ECL sandwich, FRα calibrator; capture 6A2.G7; binder = detection Ab
[10] = molecular target: T3, recombinant purified FRα (ECL assay …); experiment: ECL sandwich, FRα calibrator; capture 1D2.G8.G10; binder = detection Ab
[11] = molecular target: T3, recombinant purified FRα (ECL assay …); experiment: ECL sandwich on FRα, signal to background; capture 24H8.D3; binder = detection Ab
[12] = molecular target: T3, recombinant purified FRα (ECL assay …); experiment: ECL sandwich, FRα calibrator; capture 1A8.G11.E7; binder = detection Ab
[13] = molecular target: T3, recombinant purified FRα (ECL assay …); experiment: ECL sandwich, FRα calibrator; capture 1C6.E12.G8; binder = detection Ab
[14] = molecular target: T3, recombinant purified FRα (ECL assay …); experiment: ECL sandwich on FRα, signal to background; capture 5C12.H8; binder = detection Ab
[15] = molecular target: T3, recombinant purified FRα (ECL assay …); experiment: ECL sandwich, FRα calibrator; capture 24H8.D3; binder = detection Ab
[16] = molecular target: T3, recombinant purified FRα (ECL assay …); experiment: ECL sandwich on FRα, signal to background; capture 19D4.B7; binder = detection Ab
[17] = molecular target: T3, recombinant purified FRα (ECL assay …); experiment: ECL sandwich, FRα calibrator; capture 5C12.H8; binder = detection Ab
[18] = molecular target: T3, recombinant purified FRα (ECL assay …); experiment: ECL sandwich on FRα, signal to background; capture 30G6.G6.G4.E9; binder = detection Ab
[19] = molecular target: T3, recombinant purified FRα (ECL assay …); experiment: ECL sandwich, FRα calibrator; capture 2F11.F8; binder = detection Ab
[20] = molecular target: T3, recombinant purified FRα (ECL assay …); experiment: ECL sandwich, FRα calibrator; capture 19D2.G9; binder = detection Ab
[21] = molecular target: T3, recombinant purified FRα (ECL assay …); experiment: ECL sandwich, FRα calibrator; capture 26A9.C4; binder = detection Ab
[22] = molecular target: T3, recombinant purified FRα (ECL assay …); experiment: ECL sandwich on FRα, signal to background; capture 24H8.F3; binder = detection Ab
[23] = molecular target: T3, recombinant purified FRα (ECL assay …); experiment: ECL sandwich on FRα, signal to background; capture 28H12.G9; binder = detection Ab
[24] = molecular target: T3, recombinant purified FRα (ECL assay …); experiment: ECL sandwich on FRα, signal to background; capture 19D2.G9; binder = detection Ab
[25] = molecular target: T3, recombinant purified FRα (ECL assay …); experiment: ECL sandwich, FRα calibrator; capture 30G6.G6.G4.E9; binder = detection Ab
[26] = molecular target: T3, recombinant purified FRα (ECL assay …); experiment: ECL sandwich on FRα, signal to background; capture 6A2.G7; binder = detection Ab
[27] = molecular target: T3, recombinant purified FRα (ECL assay …); experiment: ECL sandwich on FRα, signal to background; capture 26A9.C4; binder = detection Ab
[28] = molecular target: T3, recombinant purified FRα (ECL assay …); experiment: ECL sandwich on FRα, signal to background; capture 1A8.G11.E7; binder = detection Ab

Binder	binding result [1]	binding result [2]	Specific signal at 500 pg/mL [3]	Average of S/B [4]	Average of S/B [5]	Average of S/B [6]	Specific signal at 500 pg/mL [7]	Specific signal at 500 pg/mL [8]	Specific signal at 500 pg/mL [9]	Specific signal at 500 pg/mL [10]	Average of S/B [11]	Specific signal at 500 pg/mL [12]	Specific signal at 500 pg/mL [13]	Average of S/B [14]	Specific signal at 500 pg/mL [15]	Average of S/B [16]	Specific signal at 500 pg/mL [17]	Average of S/B [18]	Specific signal at 500 pg/mL [19]	Specific signal at 500 pg/mL [20]	other results
B1	no binding	no binding	–	–	–	–	–	–	–	–	–	–	–	–	–	–	–	–	–	–	–
B2	no binding	no binding	73	1	1	1	54	26500	1180	60	1	65	56	1	59	338	53	81	179	71	Specific signal at 500 pg/mL [21]: 69; Average of S/B [22]: 1; Average of S/B [23]: 1; Average of S/B [24]: 1; Specific signal at 500 pg/mL [25]: 6790; Average of S/B [26]: 23; Average of S/B [27]: 1; Average of S/B [28]: 1
B3	no binding	no binding	62	1	1	1	56	16500	361	64	1	62	58	1	59	250	68	114	61	79	Specific signal at 500 pg/mL [21]: 79; Average of S/B [22]: 1; Average of S/B [23]: 1; Average of S/B [24]: 1; Specific signal at 500 pg/mL [25]: 6710; Average of S/B [26]: 6; Average of S/B [27]: 1; Average of S/B [28]: 1
B4	–	–	1220	28	29	17	19100	87	4960	1970	361	58700	2020	5	49100	1	320	1	1260	65500	Specific signal at 500 pg/mL [21]: 2630; Average of S/B [22]: 207; Average of S/B [23]: 17; Average of S/B [24]: 560; Specific signal at 500 pg/mL [25]: 81; Average of S/B [26]: 82; Average of S/B [27]: 34; Average of S/B [28]: 405

Reference: patent US20180148504A1 (EISAI R AND D MANAGEMENT, published 2018)
